Reference: patent US20220177587A1, “METHODS AND USES OF VARIANT CD80 FUSION PROTEINS AND RELATED CONSTRUCTS” (Alpine Immune Sciences, Inc., priority 2018, published 2022)

System: human pan T cells
Assay: Anti-CD3 coimmobilization assay, IFN-gamma
Assay type: cell-based
Settings: Table E34; culture supernatant, 3 days
Protocol: Costimulatory bioactivity of CD80 fusion variants was determined in anti-CD3 coimmobilization assays. 1 nM or 4 nM mouse anti-human CD3 (OKT3, Biolegends, USA) was diluted in PBS with 1 nM to 80 nM rCD80.Fc variant proteins. This mixture was added to tissue culture treated flat bottom 96-well plates (Corning, USA) overnight to facilitate adherence of the stimulatory proteins to the wells of the plate. The next day, unbound protein was washed off the plates and 100,000 purified human pan T cells (BenTech Bio, US) or human T cell clone BC3 (Astarte Biologics, USA) were added to each well in a final volume of 200 μl of Ex-Vivo 15 media (Lonza, Switzerland). Cells were cultured 3 days before harvesting culture supernatants and measuring human IFN-gamma levels with Duoset ELISA kit (R&D Systems, USA) as described above.

Molecule	Anti-CD3 IFN-gamma Coimmobilization Assay [pg/mL]
H18L, R29D, Y31L, Q33H, K36G, M38I, T41A, M43R, M47T, E81V, L85R, K89N, A91T, F92P, K93V, R94L, L97R, T130A, N149S (protein, UniProt P33681 35-288, looked up, variant H18L R29D Y31L Q33H K36G M38I T41A M43R M47T E81V L85R K89N A91T F92P K93V R94L L97R T130A N149S) T-lymphocyte activation …: VIHVTKEVKEVATLSCGLNVSVEELAQTDILWHKEGKIVLAMRSGDTNIWPEYKNRTIFDITNNLSIVILALRPSDEGTYVCVVRKYENDTPVLEHRAEVTLSVKADFPTPSISDFEIPTSNIRRIICSASGGFPEPHLSWLENGEELSAINTTVSQDPETELYAVSSKLDFNMTTNHSFMCLIKYGHLRVNQTFNWNTTKQEHFPDNLLPSWAITLISVNGIFVICCLTYCFAPRCRERRRNERLRRESVRPV	96
V22A, R29D, Y31L, Q33H, K36G, M38I, T41A, M43R, M47T, E81V, L85R, K89N, A91T, F92P, K93V, R94L, V68M, T130A (protein) VIHVTKEVKEVATLSCGHNVSAEELAQTDILWHKEGKIVLAMRSGDTNIWPEYKNRTIFDITNNLSIMILALRPSDEGTYVCVVRKYENDTPVLEHLAEVTLSVKADFPTPSISDFEIPTSNIRRIICSASGGFPEPHLSWLENGEELNAINTTVSQDPETELYAVSSKLDFNMTTNHSFMCLIKYGHLRVNQTFNWNTTKQEHFPDN	96
T28A, R29D, Y31L, Q33H, K36G, M38I, T41A, M43R, M47T, E81V, L85R, K89N, A91T, F92P, K93V, R94L, V104L, T130A, N149S (protein) VIHVTKEVKEVATLSCGHNVSVEELAQADILWHKEGKIVLAMRSGDTNIWPEYKNRTIFDITNNLSIVILALRPSDEGTYVCVVRKYENDTPVLEHLAEVTLSLKADFPTPSISDFEIPTSNIRRIICSASGGFPEPHLSWLENGEELSAINTTVSQDPETELYAVSSKLDFNMTTNHSFMCLIKYGHLRVNQTFNWNTTKQEHFPDN	116
R29D, Y31L, Q33H, K36G, M38I, T41A, M43R, M47T, E81V, L85R, K89N, A91T, F92P, K93V, R94L, I118V, T120S, T130A, K169E, M174T (protein) VIHVTKEVKEVATLSCGHNVSVEELAQTDILWHKEGKIVLAMRSGDTNIWPEYKNRTIFDITNNLSIVILALRPSDEGTYVCVVRKYENDTPVLEHLAEVTLSVKADFPTPSISDFEVPSSNIRRIICSASGGFPEPHLSWLENGEELNAINTTVSQDPETELYAVSSELDFNTTTNHSFMCLIKYGHLRVNQTFNWNTTKQEHFPDN	141
R29D, Y31L, Q33H, K36G, M38I, T41A, M43R, M47T, E81V, L85R, K89N, A91T, F92P, K93V, R94L, H18L, V68A, T130A, N149S, T154I (protein) VIHVTKEVKEVATLSCGLNVSVEELAQTDILWHKEGKIVLAMRSGDTNIWPEYKNRTIFDITNNLSIAILALRPSDEGTYVCVVRKYENDTPVLEHLAEVTLSVKADFPTPSISDFEIPTSNIRRIICSASGGFPEPHLSWLENGEELSAINTIVSQDPETELYAVSSKLDFNMTTNHSFMCLIKYGHLRVNQTFNWNTTKQEHFPDN	132
H18L, R29D, Y31L, Q33H, K36G, M38I, T41A, M43R, M47T, E81V, L85R, K89N, A91T, F92P, K93V, R94L, L97R, N149S, H188Q (protein) VIHVTKEVKEVATLSCGLNVSVEELAQTDILWHKEGKIVLAMRSGDTNIWPEYKNRTIFDITNNLSIVILALRPSDEGTYVCVVRKYENDTPVLEHRAEVTLSVKADFPTPSISDFEIPTSNIRRIICSTSGGFPEPHLSWLENGEELSAINTTVSQDPETELYAVSSKLDFNMTTNHSFMCLIKYGQLRVNQTFNWNTTKQEHFPDN	125
R29D, Y31L, Q33H, K36G, M38I, T41A, M43R, M47T, E81V, L85R, K89N, A91T, F92P, K93V, R94L, I118T, T130A, N149S, K169I, Q193L (protein) VIHVTKEVKEVATLSCGHNVSVEELAQTDILWHKEGKIVLAMRSGDTNIWPEYKNRTIFDITNNLSIVILALRPSDEGTYVCVVRKYENDTPVLEHLAEVTLSVKADFPTPSISDFETPTSNIRRIICSASGGFPEPHLSWLENGEELSAINTTVSQDPETELYAVSSILDFNMTTNHSFMCLIKYGHLRVNLTFNWNTTKQEHFPDN	130
R29D, Y31L, Q33H, K36G, M38I, T41A, M43R, M47T, E81V, L85R, K89N, A91T, F92P, K93V, R94F, N64S, I118T, T130A, N149S, K169I (protein) VIHVTKEVKEVATLSCGHNVSVEELAQTDILWHKEGKIVLAMRSGDTNIWPEYKNRTIFDITNSLSIVILALRPSDEGTYVCVVRKYENDTPVFEHLAEVTLSVKADFPTPSISDFETPTSNIRRIICSASGGFPEPHLSWLENGEELSAINTTVSQDPETELYAVSSILDFNMTTNHSFMCLIKYGHLRVNQTFNWNTTKQEHFPDN	30
R29D, Y31L, Q33H, K36G, M38I, T41A, M43R, M47T, E81V, L85R, K89N, A91T, F92P, K93V, R94L, V22A, I118T, T130A, N149S (protein) VIHVTKEVKEVATLSCGHNVSAEELAQTDILWHKEGKIVLAMRSGDTNIWPEYKNRTIFDITNNLSIVILALRPSDEGTYVCVVRKYENDTPVLEHLAEVTLSVKADFPTPSISDFETPTSNIRRIICSASGGFPEPHLSWLENGEELSAINTTVSQDPETELYAVSSKLDFNMTTNHSFMCLIKYGHLRVNQTFNWNTTKQEHFPDN	124
A91G, S129P (protein) VIHVTKEVKEVATLSCGHNVSVEELAQTRIYWQKEKKMVLTMMSGDMNIWPEYKNRTIFDITNNLSIVILALRPSDEGTYECVVLKYEKDGFKREHLAEVTLSVKADFPTPSISDFEIPTSNIRRIICPTSGGFPEPHLSWLENGEELNAINTTVSQDPETELYAVSSKLDFNMTTNHSFMCLIKYGHLRVNQTFNWNTTKQEHFPDN	0
Y31H, S129P (protein, CD80 v106 ECD) VIHVTKEVKEVATLSCGHNVSVEELAQTRIHWQKEKKMVLTMMSGDMNIWPEYKNRTIFDITNNLSIVILALRPSDEGTYECVVLKYEKDAFKREHLAEVTLSVKADFPTPSISDFEIPTSNIRRIICPTSGGFPEPHLSWLENGEELNAINTTVSQDPETELYAVSSKLDFNMTTNHSFMCLIKYGHLRVNQTFNWNTTKQEHFPDN	76
I69T, L70Q, A91G, T120S (protein, CD80 v105 ECD) VIHVTKEVKEVATLSCGHNVSVEELAQTRIYWQKEKKMVLTMMSGDMNIWPEYKNRTIFDITNNLSIVTQALRPSDEGTYECVVLKYEKDGFKREHLAEVTLSVKADFPTPSISDFEIPSSNIRRIICSTSGGFPEPHLSWLENGEELNAINTTVSQDPETELYAVSSKLDFNMTTNHSFMCLIKYGHLRVNQTFNWNTTKQEHFPDN	509
